Measurements published in patent publication US20220073599A1.
Values belong to the binder of their own block, whether it stands above or below them.

Legend:
[1] = molecular target: human VEGFA-121-His (human) (UniProt P15692); assay: KinExA equilibrium titration in solution, VEGFA-121
human VEGFA-165 (human) = human VEGFA-165 (human) (UniProt P15692); assay: KinExA, VEGFA-165; set-up for VEGFA-165 not described
Pig VEGF-A-121 (pig) = Pig VEGF-A-121 (pig) (UniProt P49151); assay: SPR crossreactivity set-up, VEGF-A121-His captured by anti-His antibody, Fab injected, single cycle kinetics
Sequence of Pig VEGF-A-121 (pig) (P49151 other isoform, or with tags, fused parts or gaps limits assumed): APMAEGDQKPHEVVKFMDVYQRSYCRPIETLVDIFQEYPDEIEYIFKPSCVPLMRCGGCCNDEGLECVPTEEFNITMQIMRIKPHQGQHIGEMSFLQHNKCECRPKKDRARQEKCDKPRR

Sequence of human VEGFA-121-His (human) (P15692 other isoform, or with tags, fused parts or gaps): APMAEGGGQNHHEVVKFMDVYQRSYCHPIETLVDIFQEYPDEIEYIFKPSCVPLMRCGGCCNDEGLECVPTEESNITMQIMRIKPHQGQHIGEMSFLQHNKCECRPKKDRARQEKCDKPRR
Sequence of human VEGFA-165 (human) (P15692 other isoform, or with tags, fused parts or gaps limits assumed): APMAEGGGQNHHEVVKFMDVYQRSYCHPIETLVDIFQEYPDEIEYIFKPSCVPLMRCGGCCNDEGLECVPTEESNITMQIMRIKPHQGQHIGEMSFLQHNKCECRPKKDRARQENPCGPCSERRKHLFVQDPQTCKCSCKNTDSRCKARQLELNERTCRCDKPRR

- Kd [1]: 2 pM
- Kd (human VEGFA-165 (human)): 1 pM
B1: Brolucizumab-analogue (scFv, INN chains, looked up, V domains shown)
VH: EVQLVESGGGLVQPGGSLRLSCTASGFSLTDYYYMTWVRQAPGKGLEWVGFIDPDDDPYYATWAKGRFTISRDNSKNTLYLQMNSLRAEDTAVYYCAGGDHNSGWGLDIWGQGTLVTVSS
VL: EIVMTQSPSTLSASVGDRVIITCQASEIIHSWLAWYQQKPGKAPKLLIYLASTLASGVPSRFSGSGSGAEFTLTISSLQPDDFATYYCQNVYLASTNGANFGQGTKLTVL
modifications: scFv

- Kd (Pig VEGF-A-121 (pig)): 2790 pM
- koff (Pig VEGF-A-121 (pig)): 0.000499 s⁻¹
- kon (Pig VEGF-A-121 (pig)): 179000 M⁻¹ s⁻¹
- t1/2 (Pig VEGF-A-121 (pig)): 23 min
B2: bispecific anti-VEGF-A/anti-ANG2 Fab fragment P1AD9820 (Fab, V domains shown)
VH: SEHLVESGGGLVKPGGSLRLSCATADFFEYDDMSWVRQAPGKGLEWVGSISPKGDHKYLNTKFIGRFTISRDDSKNTLYLQMNSLRAEDTAVYYCARDVGFFDWWGQGTLVTVSS
VL: AIYMHQEPSSLSASVGDRVTITCHGSYWLNSEVAWYQQKPGKAPKLLIFDGDFKVYEVPSRFSGSGSHEDYTLTISSLQPEDFATYYCQQYRYHPYTFGHGTKVEIKR
